Changes are numbered by the printed parent chain. Names may count otherwise. “Also recorded” adds a separate entry of the source. Each block holds one molecule with its values, some of them ahead of it. Ends that are not written are not given here.
Key:
[1] = target: T1, P450 17A1 (Homo sapiens, UniProt P05093); assay: Inhibition of reconstituted P450 17A1 steroid oxidation reactions by peptides; assay type: biochemical
T1 construct: made in house; host or cells: Escherichia coli (P450 17A1 in JM109)
T1 sequence (P00167 whole entry partner, one chain of several): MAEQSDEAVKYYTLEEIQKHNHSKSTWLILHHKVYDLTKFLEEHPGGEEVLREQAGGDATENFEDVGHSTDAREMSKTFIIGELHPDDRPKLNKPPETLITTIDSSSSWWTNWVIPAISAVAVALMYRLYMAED
Source text: The “b5 peptide” corresponds to residues 43 to 52 of b5, and the “17A1 peptide” corresponds to residues 347 to 358 of P450 17A1 (see Experimental procedures section and Fig. S7).

[2] = target: cytochrome c (UniProt P99999); assay: fluorescence titration; conditions: cited from earlier work
Chain of cytochrome c (P99999 2-105): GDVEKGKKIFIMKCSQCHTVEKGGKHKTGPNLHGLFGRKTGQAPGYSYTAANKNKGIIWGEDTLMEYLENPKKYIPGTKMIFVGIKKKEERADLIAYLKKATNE

[3] = target: metmyoglobin (UniProt P02144); assay: fluorescence titration; conditions: cited from earlier work
Chain of metmyoglobin (P02144 2-154): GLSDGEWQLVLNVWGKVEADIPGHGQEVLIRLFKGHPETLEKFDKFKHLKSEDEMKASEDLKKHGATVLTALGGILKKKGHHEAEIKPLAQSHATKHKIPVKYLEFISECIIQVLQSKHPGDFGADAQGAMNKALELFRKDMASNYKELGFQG

[4] = target: P450cam (Pseudomonas putida) (UniProt P00183); assay: fluorescence titration; conditions: cited from earlier work
Chain of P450cam (Pseudomonas putida) (P00183 2-415): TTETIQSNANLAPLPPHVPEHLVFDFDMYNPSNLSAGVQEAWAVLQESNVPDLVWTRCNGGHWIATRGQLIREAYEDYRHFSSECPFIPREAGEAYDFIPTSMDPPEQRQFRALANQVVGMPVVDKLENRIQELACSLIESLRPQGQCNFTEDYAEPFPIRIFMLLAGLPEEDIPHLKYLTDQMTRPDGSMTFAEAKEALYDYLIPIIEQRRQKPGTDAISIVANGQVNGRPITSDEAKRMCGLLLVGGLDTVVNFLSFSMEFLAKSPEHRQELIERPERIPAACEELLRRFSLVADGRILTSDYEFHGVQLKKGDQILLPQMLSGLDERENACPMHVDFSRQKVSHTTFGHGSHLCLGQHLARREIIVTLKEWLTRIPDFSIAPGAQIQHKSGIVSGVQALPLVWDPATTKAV

[5] = target: T2, Alexa 488-T70C-b5:P450 17A1 complex (Homo sapiens, UniProt P00167+P05093, T70C); assay: Peptide addition to Alexa 488-T70C-b5:P450 17A1 complex (gain of fluorescence); assay type: binding; conditions: even at a concentration of 160 μM; data not presented
T2 construct: made in house; host or cells: Escherichia coli (P450 17A1 in JM109; T70C-b5 plasmid in DH5α)
T2 sequence (P00167 whole entry T70C, one chain of several): as the sequence (P00167 whole entry partner, one chain of several) above, with T70C counted along it
Source text: Peptides were obtained corresponding to the putative binding sites of P450 17A1 and b5 (see Experimental procedures section and Fig. S7).

[6] = target: T3, WT P450 17A1 (human, UniProt P05093 1-508); assay: other fluorescence titration; as a1, with 17-OH progesterone present at 10 μM; conditions: both partners purified
T3 construct: cytochrome P450 17A1, human; approximate Mr 57 kDa; also called cytochrome P450 17A1; CYP17A1; source: E. coli JM109 (pCW vector), purified (Ni2+-NTA)
T3 sequence (looked up): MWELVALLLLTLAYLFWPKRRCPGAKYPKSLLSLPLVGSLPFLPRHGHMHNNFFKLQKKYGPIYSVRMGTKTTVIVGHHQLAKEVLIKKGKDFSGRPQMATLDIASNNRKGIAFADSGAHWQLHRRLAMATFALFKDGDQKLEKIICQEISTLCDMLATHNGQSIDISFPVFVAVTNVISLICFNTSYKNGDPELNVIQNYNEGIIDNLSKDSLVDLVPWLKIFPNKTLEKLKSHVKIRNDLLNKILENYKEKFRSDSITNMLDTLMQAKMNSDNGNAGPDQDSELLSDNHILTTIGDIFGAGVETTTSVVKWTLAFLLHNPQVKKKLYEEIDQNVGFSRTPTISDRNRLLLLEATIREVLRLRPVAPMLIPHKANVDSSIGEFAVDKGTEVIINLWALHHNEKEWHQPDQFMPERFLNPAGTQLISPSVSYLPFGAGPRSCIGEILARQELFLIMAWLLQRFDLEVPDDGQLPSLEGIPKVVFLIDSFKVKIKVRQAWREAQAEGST

[7] = target: T3, WT P450 17A1; assay: other fluorescence titration; 50 nM Alexa 488-T70C-b5 in 100 mM potassium phosphate pH 7.4 titrated with P450 17A1 (WT or variant); excitation 480 nm, emission 513 nm; quadratic fit; no substrate; no phospholipid vesicles; apparent Kd; conditions: both partners purified
[8] = target: T3, WT P450 17A1; assay: other fluorescence titration; as a1, with 17-OH pregnenolone present at 10 μM; conditions: both partners purified
[9] = target: T3, WT P450 17A1; assay: other fluorescence titration; as a1, with pregnenolone present at 10 μM; conditions: both partners purified
[10] = target: T3, WT P450 17A1; assay: stopped-flow fluorescence; dissociation: preformed Alexa 488-T70C-b5:P450 17A1 complex mixed with 30 μM unlabeled b5; excitation 488 nm, emission >530 nm, single exponential; conditions: both partners purified
[11] = target: T3, WT P450 17A1; assay: other fluorescence titration; as a1, with progesterone present at 10 μM; conditions: both partners purified
[12] = substrate: CC(=O)[C@H]1CC[C@H]2[C@@H]3CCC4=CC(=O)CC[C@]4(C)[C@H]3CC[C@]12C; assay: purified protein, by the assay type; conditions: other: 17α-hydroxylation, pH 7.4, 30.0 °C
[13] = substrate: CC(=O)C1CCC2C3CC=C4C[C@@H](O)CC[C@]4(C)C3CC[C@]12C; assay: purified protein, by the assay type; conditions: other: 17α-hydroxylation, pH 7.4, 30.0 °C
[14] = substrate: CC(=O)[C@@]1(O)CCC2C3CC=C4C[C@@H](O)CC[C@]4(C)C3CC[C@@]21C; assay: purified protein, by the assay type; conditions: other: lyase reaction (conversion to androstenedione or DHEA), pH 7.4, 30.0 °C
[15] = target: T4, WT P450 17A1 (Homo sapiens, UniProt P05093); assay type: biochemical; parameters: made in house; host or cells: Escherichia coli (P450 17A1 in JM109)
T4 sequence (P05093 1-508): T3 sequence (looked up)
Protocol: Figure S4. Stimulation of lyase activities by b5, T70C- b5, and NanoTemper Blue-T70C-b5. Catalytic assays for the lyase reactions were performed and analyzed as described in the main text.

- inhibition of progesterone 17α-hydroxylation [1]: only at the very highest concentration
Molecule: RNRLLLLEATIR [P450 peptide, R N R L L L L E A T I R]
- inhibition of lyase reaction (17α-OH pregnenolone) ([1]; b5 present at 10-fold higher concentration than P450, listed as P450 17A1 peptide): more inhibitory to the lyase reaction (17α-OH pregnenolone) than the b5 peptide; also recorded: weak inhibition

Molecule: cytochrome b5 (T65C labeled) (from UniProt P00173)
- Kd [2]: 1000 nM
- Kd [3]: 1000 nM
- Kd [4]: 1000 nM

- gain of fluorescence of Alexa 488-T70C-b5:P450 17A1 complex [5]: did not result in a gain of fluorescence
Molecule: EHPGGEEVLRE [b5 peptide, E H P G G E E V L R E]

- Kd [6]: 6 ± 1 nM
- Kd [7]: 2.5 ± 0.6 nM
- Kd [8]: 2.2 ± 1 nM
- Kd [9]: 12 ± 5 nM
- koff [10]: 1.9 ± 0.2 s⁻¹
- Kd [11]: 5.8 ± 2.3 nM
B1: Alexa 488-T70C-b5 (natural protein, human)
chain: MAEQSDEAVKYYTLEEIQKHNHSKSTWLILHHKVYDLTKFLEEHPGGEEVLREQAGGDATENFEDVGHSCDAREMSKTFIIGELHPDDRPKLNKPPETLITTIDSSSS
modifications: Alexa Fluor 488 maleimide conjugated to the cysteine of T70C; extent of modification 74%
notes: cytochrome b5 (CYB5A, b5), human, T70C; printed theoretical mass 16.9 kDa; Heme protein; also called labeled b5; fluorescently labeled variant of human b5

B2: WT P450 17A1 (Homo sapiens) (protein)
chain: T3 sequence (looked up)
- Km ([12]; WT): 7.8 ± 1.4 µM
- kcat ([12]; WT): 0.107 ± 0.00833 s⁻¹
- kcat/Km ([12]; WT): 13700 M⁻¹ s⁻¹
- Km ([13]; WT): 0.47 ± 0.20 µM
- kcat ([13]; WT): 0.0147 ± 0.000833 s⁻¹
- kcat/Km ([13]; WT): 31700 M⁻¹ s⁻¹
- Km ([14]; WT): 6.7 ± 2.1 µM
- kcat ([14]; WT): 0.0917 s⁻¹
- kcat/Km ([14]; WT): 13800 M⁻¹ s⁻¹

B3: P450 17A1 R358Q variant (Homo sapiens; R358Q) (protein)
chain: T3 sequence (looked up) with R358Q
- Km ([12]; R358Q): 4.6 ± 0.7 µM
- kcat ([12]; R358Q): 0.00717 ± 0.000333 s⁻¹
- Km ([13]; R358Q): 2.6 ± 1.4 µM
- kcat ([13]; R358Q): 0.00967 ± 0.0015 s⁻¹
- kcat/Km ([13]; R358Q): 3670 M⁻¹ s⁻¹
- Km ([14]; R358Q): 10 ± 5 µM
- kcat ([14]; R358Q): 0.000933 s⁻¹
- kcat/Km ([14]; R358Q): 83.3 M⁻¹ s⁻¹

B4: P450 17A1 R347H variant (Homo sapiens; R347H) (protein)
chain: T3 sequence (looked up) with R347H
- Km ([12]; R347H): 8.1 ± 2.2 µM
- kcat ([12]; R347H): 0.003 ± 0.000333 s⁻¹
- kcat/Km ([12]; R347H): 333 M⁻¹ s⁻¹
- Km ([13]; R347H): 1.5 ± 0.5 µM
- kcat ([13]; R347H): 0.00883 ± 0.000667 s⁻¹
- kcat/Km ([13]; R347H): 5830 M⁻¹ s⁻¹
- Km ([14]; R347H): 4.8 ± 1.7 µM
- kcat ([14]; R347H): 0.000717 s⁻¹
- kcat/Km ([14]; R347H): 150 M⁻¹ s⁻¹

B5: P450 17A1 E305G variant (Homo sapiens; E305G) (protein)
chain: T3 sequence (looked up) with E305G
- Km ([12]; E305G): 3.1 ± 0.4 µM
- kcat ([12]; E305G): 0.00317 ± 0.000167 s⁻¹
- kcat/Km ([12]; E305G): 1000 M⁻¹ s⁻¹
- Km ([13]; E305G): 5.7 ± 4.6 µM
- kcat ([13]; E305G): 0.00117 ± 0.000333 s⁻¹
- kcat/Km ([13]; E305G): 167 M⁻¹ s⁻¹
- Km ([14]; E305G): 9.4 ± 3.7 µM
- kcat ([14]; E305G): 0.000933 s⁻¹
- kcat/Km ([14]; E305G): 100 M⁻¹ s⁻¹

B6: Blue-T70C-b5: T70C-b5 labeled with the proprietary NanoTemper BLUE fluorescent dye (protein, UniProt P00167 2-134, looked up, variant T70C)
Cytochrome b5: AEQSDEAVKYYTLEEIQKHNHSKSTWLILHHKVYDLTKFLEEHPGGEEVLREQAGGDATENFEDVGHSCDAREMSKTFIIGELHPDDRPKLNKPPETLITTIDSSSSWWTNWVIPAISAVAVALMYRLYMAED
modifications: NanoTemper BLUE fluorescent dye label
- stimulation of lyase activities [15]: stimulated the lyase reactions
